Reference: paper PMC2151085 (PLoS Pathogens, 2007)

How the values were obtained:
[1] = biological target: ALV-A Env surface subunit (SU), wild type, on virus particles (avian leukosis virus-A (ALV-A)) (UniProt P0DTM4)
[2] = biological target: the molecule itself; test: SDS-resistant oligomer by SDS-PAGE and immunoblot

Chain of ALV-A Env surface subunit (SU), wild type, on virus particles (avian leukosis virus-A (ALV-A)) (P0DTM4 63-401): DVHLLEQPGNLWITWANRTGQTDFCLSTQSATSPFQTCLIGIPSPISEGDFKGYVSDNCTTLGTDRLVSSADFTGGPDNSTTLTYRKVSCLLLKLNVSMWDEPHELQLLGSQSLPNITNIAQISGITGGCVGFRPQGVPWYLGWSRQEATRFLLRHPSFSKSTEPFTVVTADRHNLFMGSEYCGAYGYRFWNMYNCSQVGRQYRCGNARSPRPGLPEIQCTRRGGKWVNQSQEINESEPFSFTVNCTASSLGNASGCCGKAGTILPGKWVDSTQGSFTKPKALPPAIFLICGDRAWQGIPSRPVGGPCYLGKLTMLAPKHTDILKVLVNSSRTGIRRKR

| Molecule | infection of 293-Tva cells by ALV-A particles exposed to PMB (10 mM) in the presence of sTva (10 uM) [1] [%] | stoichiometry N [2] |
| --- | --- | --- |
| sTva, a functional isoform of the ALV-A receptor lacking the transmembrane domain | > 99 | – |
| ALV-A Env transmembrane subunit (TM), on virus particles (natural protein) STSHLDDTCSDEVQLWGPTARIFASILAPGVARAQALREIERLACWSVKQANLTTSFLGDLLDDVTSIRHAVLQNRAAIDFLLLAHGHGCEDVAGMCCFNLSDHSESIQKKFQLMKEHVNKIGVDSDPIGSWLRGLFGGIGEWAVHLLKGLLLGLVVILLLVVCLPCLLQIVCGNIRKMINNSISYHTEYKKLQKACGQPESRIV | – | 3 |
